Measured values published in article PMC11257983 (2024).

B1: Flag-CNK^2–549 [Drosophila] / Myc-MEK [Drosophila] (parent)
chain 1: MSKNKLNLVLPPVNTEATVAAATVAPTPPFKTPSGTDTHSLLGKPKTSIDALTETLEGLDMGDTERKRIKMFLSQKEKIGELSDEDLEKLGELGSGNGGVVMKVRHTHTHLIMARKLIHLEVKPAIKKQILRELKVLHECNFPHIVGFYGAFYSDGEISICMEYMDGGSLDLILKRAGRIPESILGRITLAVLKGLSYLRDNHAIIHRDVKPSNILVNSSGEIKICDFGVSGQLIDSMANSFVGTRSYMSPERLQGTHYSVQSDIWSLGLSLVEMAIGMYPIPPPNTATLESIFADNAEESGQPTDEPRAMAIFELLDYIVNEPPPKLEHKIFSTEFKDFVDICLKKQPDERADLKTLLSHPWIRKAELEEVDISGWVCKTMDLPPSTPKRNTSPN
chain 2: AYINIAEWTPDQVTDWIKGLDESMKGYLYEFSKQEIGGRALLNIRPYELENLGMLRIGHQEIVLEAVENLRNFHYHLKNDNLQFMALHVATAAKNLHRELARNHAESTKIDTRILHDITRTIATLKPLVGSLERTPFRKQEMYREYCGNVLKCGLELATIAHRDRFALQPVPAIRQSAERLENLANFVIQDISDPMVLQPASLNLVTLKKRESELGFNIESSYNGIHRVTDIKYNSPAHNSGKIEDGDEIVQINYQTVVGWQHRTVLEHLREALPDVVLTVKKRPKHTKMFGQIYMQPYRLPSKKRNMAARWAAQMPSPRAAFLTLDTEQLATGGTGSAVPDPSKSLSSEKREVLTKANPVSSASDSDSSCSDIPTPTDPKLAAREIRLYYPKPRALLQRRNTICGCEYLSLKNSDLVVPSWHERKPGIGSPTNCDPGSPSIRDKSISFGYGLEMAARPTTCIGIAGDTSTDKARRMFHEARKLKQLTEDSQREFLVDRYKPGVSKVVRFDAKEDYVMKNEKFICNVENTILETFEPIPFADEGDEDA

Variants of: B1
Experiment: GST pull-down, immunoblot quantification
Conditions: with Myc-MEK [Drosophila], S2 cells, Flag-CNK2–549, V5-KSR, GST-HYP co-expressed, captured via GST-HYP, anti-Myc (MEK) blot, parent: 1

ratio to parent	Variant
0.04	chain 2 AYINIAEWTPDQVTDWIKGLDESMKGYLYEFSKQEIGGRALLNIRPYELENLGMLRIGHQEIVLEAVENLRNFHYHLKNDNLEFMALHVATAAKNLHRELARNHAESTKIDTRILHDITRTIATLKPLVGSLERTPFRKQEMYREYCGNVLKCGLELATIAHRDRFALQPVPAIRQSAERLENLANFVIQDISDPMVLQPASLNLVTLKKRESELGFNIESSYNGIHRVTDIKYNSPAHNSGKIEDGDEIVQINYQTVVGWQHRTVLEHLREALPDVVLTVKKRPKHTKMFGQIYMQPYRLPSKKRNMAARWAAQMPSPRAAFLTLDTEQLATGGTGSAVPDPSKSLSSEKREVLTKANPVSSASDSDSSCSDIPTPTDPKLAAREIRLYYPKPRALLQRRNTICGCEYLSLKNSDLVVPSWHERKPGIGSPTNCDPGSPSIRDKSISFGYGLEMAARPTTCIGIAGDTSTDKARRMFHEARKLKQLTEDSQREFLVDRYKPGVSKVVRFDAKEDYVMKNEKFICNVENTILETFEPIPFADEGDEDA [chain 2 Q83E]
1.01	chain 2 AYINIAEWTPDQVTDWIKGLDESMKGYLYEFSKQEIGGRALLNIFPYELENLGMLRIGHQEIVLEAVENLRNFHYHLKNDNLQFMALHVATAAKNLHRELARNHAESTKIDTRILHDITRTIATLKPLVGSLERTPFRKQEMYREYCGNVLKCGLELATIAHRDRFALQPVPAIRQSAERLENLANFVIQDISDPMVLQPASLNLVTLKKRESELGFNIESSYNGIHRVTDIKYNSPAHNSGKIEDGDEIVQINYQTVVGWQHRTVLEHLREALPDVVLTVKKRPKHTKMFGQIYMQPYRLPSKKRNMAARWAAQMPSPRAAFLTLDTEQLATGGTGSAVPDPSKSLSSEKREVLTKANPVSSASDSDSSCSDIPTPTDPKLAAREIRLYYPKPRALLQRRNTICGCEYLSLKNSDLVVPSWHERKPGIGSPTNCDPGSPSIRDKSISFGYGLEMAARPTTCIGIAGDTSTDKARRMFHEARKLKQLTEDSQREFLVDRYKPGVSKVVRFDAKEDYVMKNEKFICNVENTILETFEPIPFADEGDEDA [chain 2 R45F]
0.94	chain 2 AYINIAEWTPDQVTDWIKGLDESMKGYLYEFSKQEIGGRALLNIRPYELENLGMLRIGHQEIVLEAVENLRNFHYHLKNDNLQFMALHVATAAKELHRELARNHAESTKIDTRILHDITRTIATLKPLVGSLERTPFRKQEMYREYCGNVLKCGLELATIAHRDRFALQPVPAIRQSAERLENLANFVIQDISDPMVLQPASLNLVTLKKRESELGFNIESSYNGIHRVTDIKYNSPAHNSGKIEDGDEIVQINYQTVVGWQHRTVLEHLREALPDVVLTVKKRPKHTKMFGQIYMQPYRLPSKKRNMAARWAAQMPSPRAAFLTLDTEQLATGGTGSAVPDPSKSLSSEKREVLTKANPVSSASDSDSSCSDIPTPTDPKLAAREIRLYYPKPRALLQRRNTICGCEYLSLKNSDLVVPSWHERKPGIGSPTNCDPGSPSIRDKSISFGYGLEMAARPTTCIGIAGDTSTDKARRMFHEARKLKQLTEDSQREFLVDRYKPGVSKVVRFDAKEDYVMKNEKFICNVENTILETFEPIPFADEGDEDA [chain 2 N95E]

Same assay, conditions: with Flag-CNK^2–549 [Drosophila]; S2 cells; Flag-CNK2–549, V5-KSR, Myc-MEK, GST-HYP co-expressed; captured via GST-HYP; anti-Myc (MEK) blot; parent: 1

ratio to parent	Variant
0.56	chain 1 MSKNKLNLVLPPVNTEATVAAATVAPTPPFKTPSGTDTHSLLGKPKTSIDALTETLEGLDMGDTERKRIKMFLSQKEKIGELSDEDLEKLGELGSGNGGVVMKVRHTHTHLIMARKLIHLEVKPAIKKQILRELKVLHECNFPHIVGFYGAFYSDGEISICMEYMDGGSLDLILKRAGRIPESILGRITLAVLKGLSYLRDNHAIIHRDVKPSNILVNSSGEIKICDFGVSGQLIDSMANSFVGTRSYMSPERLQGTHYSVQSDIWSLGLSLVEMAIGMYPIPPPNTATLESIFADNAEESGQPTDEPRAMAIFELLDYIVNRPPPKLEHKIFSTEFKDFVDICLKKQPDERADLKTLLSHPWIRKAELEEVDISGWVCKTMDLPPSTPKRNTSPN [chain 1 E323R]

Same assay, conditions: with Flag-CNK^2–549 [Drosophila]; S2 cells; Flag-CNK2–549, V5-KSR, Myc-MEK, GST-HYP co-expressed; captured via GST-HYP; anti-V5 (KSR) blot; parent: 1

ratio to parent	Variant
0.66	chain 1 MSKNKLNLVLPPVNTEATVAAATVAPTPPFKTPSGTDTHSLLGKPKTSIDALTETLEGLDMGDTERKRIKMFLSQKEKIGELSDEDLEKLGELGSGNGGVVMKVRHTHTHLIMARKLIHLEVKPAIKKQILRELKVLHECNFPHIVGFYGAFYSDGEISICMEYMDGGSLDLILKRAGRIPESILGRITLAVLKGLSYLRDNHAIIHRDVKPSNILVNSSGEIKICDFGVSGQLIDSMANSFVGTRSYMSPERLQGTHYSVQSDIWSLGLSLVEMAIGMYPIPPPNTATLESIFADNAEESGQPTDEPRAMAIFELLDYIVNRPPPKLEHKIFSTEFKDFVDICLKKQPDERADLKTLLSHPWIRKAELEEVDISGWVCKTMDLPPSTPKRNTSPN [chain 1 E323R]

Same assay, conditions: with Myc-MEK [Drosophila]; S2 cells; GST-HYP + RRKM (Ha-RASV12, Pyo-RAF, V5-KSR, Myc-MEK) co-expressed; captured via GST-HYP; anti-MEK blot; parent: 1

ratio to parent	Variant
0.05	chain 2 AYINIAEWTPDQVTDWIKGLDESMKGYLYEFSKQEIGGRALLNIRPYELENLGMLRIGHQEIVLEAVENLRNFHYHLKNDNLQFMALHVATAAKNLHRELARNHAESTKIDTRILHDITRTIATLKPLVGSLERTPFRKQEMYREYCGNVLKCGLELATIAHRDRFALQPVPAIRQSAERLENLANFVIQDISKPMVLQPASLNLVTLKKRESELGFNIESSYNGIHRVTDIKYNSPAHNSGKIEDGDEIVQINYQTVVGWQHRTVLEHLREALPDVVLTVKKRPKHTKMFGQIYMQPYRLPSKKRNMAARWAAQMPSPRAAFLTLDTEQLATGGTGSAVPDPSKSLSSEKREVLTKANPVSSASDSDSSCSDIPTPTDPKLAAREIRLYYPKPRALLQRRNTICGCEYLSLKNSDLVVPSWHERKPGIGSPTNCDPGSPSIRDKSISFGYGLEMAARPTTCIGIAGDTSTDKARRMFHEARKLKQLTEDSQREFLVDRYKPGVSKVVRFDAKEDYVMKNEKFICNVENTILETFEPIPFADEGDEDA [chain 2 D194K]

Same assay, conditions: with Myc-MEK [Drosophila]; S2 cells; GST-HYP, V5-KSR, Myc-MEK co-expressed; captured via GST-HYP; anti-MEK blot; parent: 1

ratio to parent	Variant
0.05	chain 2 AYINIAEWTPDQVTDWIKGLDESMKGYLYEFSKQEIGGRALLNIRPYELENLGMLRIGHQEIVLEAVENLRNFHYHLKNDNLQFMALHVATAAKNLHRELARNHAESTKIDTRILHDITRTIATLKPLVGSLERTPFRKQEMYREYCGNVLKCGLELATIAHRDRFALQPVPAIRQSAERLENLANFVIQDISKPMVLQPASLNLVTLKKRESELGFNIESSYNGIHRVTDIKYNSPAHNSGKIEDGDEIVQINYQTVVGWQHRTVLEHLREALPDVVLTVKKRPKHTKMFGQIYMQPYRLPSKKRNMAARWAAQMPSPRAAFLTLDTEQLATGGTGSAVPDPSKSLSSEKREVLTKANPVSSASDSDSSCSDIPTPTDPKLAAREIRLYYPKPRALLQRRNTICGCEYLSLKNSDLVVPSWHERKPGIGSPTNCDPGSPSIRDKSISFGYGLEMAARPTTCIGIAGDTSTDKARRMFHEARKLKQLTEDSQREFLVDRYKPGVSKVVRFDAKEDYVMKNEKFICNVENTILETFEPIPFADEGDEDA [chain 2 D194K]
